Reference: paper PMC6513524, “Production and characterization of novel ssRNA bacteriophage virus-like particles from metagenomic sequencing data” (Journal of Nanobiotechnology, 2019)

Assays:
[1] = molecular target: AVE018 coat protein (ssRNA phage AVE018 (metagenomic sequence)); experiment: non-reducing SDS-PAGE; purified VLPs in 20 mM Tris-HCl pH 8.0, 50% glycerol mixed with Laemmli buffer with or without 5% 2-mercaptoethanol, 10 min at 95 °C, 15% gel; disulfide-linked CP oligomers
[2] = molecular target: NFZC01007443 coat protein (ssRNA phage NFZC01007443 (metagenomic sequence)); experiment: as above

Substance | stoichiometry N [1] | stoichiometry N [2]
AVE018 coat protein (natural protein) | 2 | 
NFZC01007443 coat protein (natural protein) |  | 5
